{"source": "patent EP3875478A1", "key": {"[1]": {"target": "human IgG1 (human)", "assay": "Biacore (SPR), format not described"}, "[2]": {"target": "CD64+V172-28z CAR (CD64 with insertion of Valine at 172 - TMCD8 - CD28 - truncated CD3z) on primary T lymphocytes (human)", "assay": "cell-based or functional assay"}, "[3]": {"target": "CD64K130S CAR (4-1BB-CD3z) on primary T lymphocytes (human)", "assay": "cell-based or functional assay"}, "[4]": {"target": "CD64wt-Bbz CAR (native CD64 - TMCD8 - 4-1BB - CD3z) on primary T lymphocytes (human)", "assay": "cell-based or functional assay"}, "[5]": {"target": "CD64K130Y CAR (CD64 K130Y - TMCD8 - 4-1BB - full CD3z) on primary T lymphocytes (human)", "assay": "cell-based or functional assay"}, "[6]": {"target": "CD64R175A CAR (CD64 R175A - TMCD8 - CD28 - CD3z) on primary T lymphocytes (human)", "assay": "cell-based or functional assay"}}}
{"substance": "CD64 with K130S, as measured by Biacore (receptor)", "values": [{"measurement": "Kd", "setting": "[1]", "result": 74, "unit": "nM"}, {"measurement": "fold reduction of the affinity of CD64 for IgG1", "setting": "[1]", "result": 7, "unit": "fold"}]}
{"substance": "anti-CD20 antibody (Rituximab clone), IgG1", "values": [{"measurement": "% inhibition 20%HS vs 10%FBS (24h)", "setting": "[2]", "result": 20.4, "unit": "%"}, {"measurement": "% inhibition 20%HS vs 10%FBS (3 days)", "setting": "[2]", "result": 40.2, "unit": "%"}, {"measurement": "% inhibition 20%HS vs 10%FBS (7 days)", "setting": "[2]", "result": 51.7, "unit": "%"}, {"measurement": "% inhibition (72h, 20% human serum vs 10% FBS)", "setting": "[2]", "result": 31.5, "unit": "%"}, {"measurement": "gamma IFN secretion in proliferation assay, 10% FBS, mean (3 days)", "setting": "[2]", "result": 438000}, {"measurement": "gamma IFN secretion in proliferation assay, 10% FBS, mean (7 days)", "setting": "[2]", "result": 753000}, {"measurement": "gamma IFN secretion in proliferation assay, 20% human serum, mean (3 days)", "setting": "[2]", "result": 262000}, {"measurement": "gamma IFN secretion in proliferation assay, 20% human serum, mean (7 days)", "setting": "[2]", "result": 364000}, {"measurement": "gamma interferon secretion, 24h co-culture with Raji, 10% FBS, mean", "setting": "[2]", "result": 11500}, {"measurement": "gamma interferon secretion, 24h co-culture with Raji, 20% human serum, mean", "setting": "[2]", "result": 9130}, {"measurement": "gamma interferon secretion, 72h co-culture with Raji, 10% FBS, mean", "setting": "[2]", "result": 399000}, {"measurement": "gamma interferon secretion, 72h co-culture with Raji, 20% human serum, mean", "setting": "[2]", "result": 273000}, {"measurement": "inhibition of proliferation by human serum", "setting": "[2]", "result": 38, "unit": "%"}, {"measurement": "cytokine secretion, 24h co-culture with Raji, antibody 2 ug/mL, 2,5% Human Serum, mean", "setting": "[3]", "result": 5350}, {"measurement": "cytokine secretion, 24h co-culture with Raji, antibody 2 ug/mL, 10% FBS, mean", "setting": "[3]", "result": 5410}, {"measurement": "cytokine secretion, 24h co-culture with Raji, antibody 2 ug/mL, 20% Human Serum, mean", "setting": "[3]", "result": 2730}, {"measurement": "percent inhibition 20%HS vs 10%FBS", "setting": "[3]", "result": 49.5, "unit": "%"}, {"measurement": "% inhibition 20%HS vs 10%FBS (24h)", "setting": "[4]", "result": 90.3, "unit": "%"}, {"measurement": "% inhibition 20%HS vs 10%FBS (3 days)", "setting": "[4]", "result": 91.7, "unit": "%"}, {"measurement": "% inhibition 20%HS vs 10%FBS (7 days)", "setting": "[4]", "result": 69.5, "unit": "%"}, {"measurement": "% inhibition (72h, 20% human serum vs 10% FBS)", "setting": "[4]", "result": 92.8, "unit": "%"}, {"measurement": "gamma IFN secretion in proliferation assay, 10% FBS, mean (3 days)", "setting": "[4]", "result": 203000}, {"measurement": "gamma IFN secretion in proliferation assay, 10% FBS, mean (7 days)", "setting": "[4]", "result": 107000}, {"measurement": "gamma IFN secretion in proliferation assay, 20% human serum, mean (3 days)", "setting": "[4]", "result": 16900}, {"measurement": "gamma IFN secretion in proliferation assay, 20% human serum, mean (7 days)", "setting": "[4]", "result": 32600}, {"measurement": "gamma interferon secretion, 24h co-culture with Raji, 10% FBS, mean", "setting": "[4]", "result": 12000}, {"measurement": "gamma interferon secretion, 24h co-culture with Raji, 20% human serum, mean", "setting": "[4]", "result": 1170}, {"measurement": "gamma interferon secretion, 72h co-culture with Raji, 10% FBS, mean", "setting": "[4]", "result": 123000}, {"measurement": "gamma interferon secretion, 72h co-culture with Raji, 20% human serum, mean", "setting": "[4]", "result": 8810}, {"measurement": "inhibition of proliferation by human serum", "setting": "[4]", "result": 6, "unit": "fold"}]}
{"substance": "CD64 with K130H mutation, as measured by Biacore (receptor)", "values": [{"measurement": "Kd", "setting": "[1]", "result": 53, "unit": "nM"}, {"measurement": "fold lower affinity for IgG1 than native CD64", "setting": "[1]", "result": 5, "unit": "fold"}]}
{"substance": "anti-CD20 antibody IgG1 mutated at Leucine 235 to Alanine", "values": [{"measurement": "cytokine secretion, 24h co-culture with Raji, antibody 2 ug/mL, 2,5% Human Serum, mean", "setting": "[5]", "result": 2720}, {"measurement": "cytokine secretion, 24h co-culture with Raji, antibody 2 ug/mL, 10% FBS, mean", "setting": "[5]", "result": 6270}, {"measurement": "cytokine secretion, 24h co-culture with Raji, antibody 2 ug/mL, 20% Human Serum, mean", "setting": "[5]", "result": 292}, {"measurement": "percent inhibition 20%HS vs 10%FBS", "setting": "[5]", "result": 95.3, "unit": "%"}]}
{"substance": "native CD64 (human high affinity Fc gamma receptor alpha chain), as measured by Biacore", "values": [{"measurement": "Kd", "setting": "[1]", "result": 10, "unit": "nM"}]}
{"substance": "anti-CD22 antibody (m971 clone), IgG1", "values": [{"measurement": "cytokine secretion, 24h co-culture with Raji, antibody 2 ug/mL, 10% FBS, mean", "setting": "[5]", "result": 20900}, {"measurement": "cytokine secretion, 24h co-culture with Raji, antibody 2 ug/mL, 20% Human Serum, mean", "setting": "[5]", "result": 9580}, {"measurement": "percent inhibition 20%HS vs 10%FBS", "setting": "[5]", "result": 54.2, "unit": "%"}, {"measurement": "cytokine secretion, 24h co-culture with Raji, antibody 2 ug/mL, 10% FBS, mean", "setting": "[6]", "result": 55900}, {"measurement": "cytokine secretion, 24h co-culture with Raji, antibody 2 ug/mL, 20% Human Serum, mean", "setting": "[6]", "result": 27000}, {"measurement": "percent inhibition 20%HS vs 10%FBS", "setting": "[6]", "result": 51.6, "unit": "%"}]}
